Broadly, the Kd is the free concentration of one partner at which half of the binding sites on the other are occupied at equilibrium, for simple one-to-one binding. A higher Kd goes with weaker binding. The term koff denotes the rate constant with which the complex falls apart. A word on the kon: it is a measure of how fast the partners come together. A low value points to slow association.

One experiment has as its target T1, human HER3 ectodomain (human, UniProt P21860 20-643).
T1 construct: extracellular domain; also called hu HER3 ECD; Her3 ECD
Kind of experiment: SPR Biacore T100, 37 C, antibody captured via anti-human IgG-Fc, ECD as analyte, 1:1 Langmuir fit. Background: SPR reads the build-up and loss of mass on a sensor chip optically.

The target of another experiment is T2, human HER1 ectodomain (human, UniProt P00533 25-645).
T2 construct: extracellular domain; also called hu HER1 ECD; Her1 ECD
The description is as above.

A further experiment has as its target T3, human HER2 ectodomain (human, UniProt P04626 23-652).
T3 construct: extracellular domain; also called hu HER2 ECD; Her2 ECD
In words: SPR (Biacore T100), antibody captured via anti-human IgG-Fc on a CM5 chip, dual inject Her2 then Her3 ectodomain, 180 s each, 25 °C.

T1 sequence (P21860 20-643): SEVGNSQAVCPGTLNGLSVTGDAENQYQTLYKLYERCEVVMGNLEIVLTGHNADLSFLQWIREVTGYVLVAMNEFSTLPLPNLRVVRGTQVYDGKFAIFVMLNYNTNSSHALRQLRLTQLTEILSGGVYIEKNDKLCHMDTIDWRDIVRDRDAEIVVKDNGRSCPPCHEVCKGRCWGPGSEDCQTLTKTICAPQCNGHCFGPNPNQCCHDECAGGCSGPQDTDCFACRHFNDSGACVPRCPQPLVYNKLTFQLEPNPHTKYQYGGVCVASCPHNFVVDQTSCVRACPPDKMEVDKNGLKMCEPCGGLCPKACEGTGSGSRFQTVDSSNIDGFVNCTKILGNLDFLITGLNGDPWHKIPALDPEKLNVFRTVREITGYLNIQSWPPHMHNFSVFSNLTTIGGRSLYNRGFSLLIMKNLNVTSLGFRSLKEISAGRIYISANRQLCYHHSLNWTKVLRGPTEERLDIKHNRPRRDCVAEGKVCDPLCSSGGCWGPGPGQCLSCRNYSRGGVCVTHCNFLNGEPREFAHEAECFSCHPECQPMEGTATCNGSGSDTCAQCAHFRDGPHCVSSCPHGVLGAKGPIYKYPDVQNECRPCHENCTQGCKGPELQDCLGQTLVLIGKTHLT
Description for human HER1 ectodomain: (§1) All experiments were performed on a Biacore T100 (GE Healthcare). Experimental results were analyzed using the T100 control and evaluation software package (GE Healthcare, v2.03). The assay format was a ‘multi cycle kinetic’ measurement on a CM5-chip. […] Using a concentration series, seven increasing concentrations of each of the antigens (human Her1, Her2, and Her3 ectodomain) were injected separately. […] Running buffer was PBS-T. Dilution buffer was PBST containing BSA (c=1 mg/mL). Capturing of MAbs<HerX> on flow cell 2, 3, and 4 with a concentration of approx. c=1 nM, flow 50/min, time 72 sec. […] Dissociation time: 1800 sec. Each concentration was analyzed as duplicate. Final regeneration was performed after each cycle using 3 M MgCl2 (recommended by vendor) with a contact time of 120 sec and a flow rate of 50 μl/min. Analysis of simultaneous binding: Her2/Her3, Her3/Her2 or Her1/Her2 were injected consecutively using the dual inject mode with a contact time of 180 sec. each. The antigen concentration was chosen for each antigen at the saturation as observed in the kinetics experiment. […] A temperature of 25° C. was chosen to minimize dissociation. Triplicates for each combination were determined. Flow rate 30 mL/min, dual inject with two injects, each 180 sec.
Description for human HER2 ectodomain: as §1
Description for human HER3 ectodomain: as §1

B1: parental DAF (Her1-Her3 dual affinity antibody) (antibody)
heavy 1: not shown
heavy 2: not shown
light: DIQMTQSPSSLSASVGDRVTITCRASQNIATDVAWYQQKPGKAPKLLIYSASFLYSGVPSRFSGSGSGTDFTLTISSLQPEDFATYYCQQSEPEPYTFGQGTKVEIKRTVAAPSVFIFPPSDEQLKSGTASVVCLLNNFYPREAKVQWKVDNALQSGNSQESVTEQDSKDSTYSLSSTLTLSKADYEKHKVYACEVTHQGLSSPVTKSFNRGEC
notes: also called DAF antibody; Bispecific parent Her1/Her3 (with KiH)
Take B1: in the experiment with human HER3 ectodomain, the affinity, expressed as Kd, was 1.9 nM; the koff amounted to 0.0037 s⁻¹; the kon is 2e+06 M⁻¹ s⁻¹; the “t ½” value is 3.1 min. Also, in the experiment with human HER1 ectodomain, the affinity, expressed as Kd, was 14 nM; the koff came out at 0.021 s⁻¹; the kon amounted to 1.4e+06 M⁻¹ s⁻¹; the “t ½” value was determined as 0.6 min. Moreover, the binding result with human HER2 ectodomain was “no binding”.

B2: trispecific antibody KiH Her1-Her3 DAF-xHer2 (antibody, human IgG1, kappa)
heavy 1: not shown
heavy 2: not shown
light 1: DIQMTQSPSSLSASVGDRVTITCRASQNIATDVAWYQQKPGKAPKLLIYSASFLYSGVPSRFSGSGSGTDFTLTISSLQPEDFATYYCQQSEPEPYTFGQGTKVEIKRTVAAPSVFIFPPSDEQLKSGTASVVCLLNNFYPREAKVQWKVDNALQSGNSQESVTEQDSKDSTYSLSSTLTLSKADYEKHKVYACEVTHQGLSSPVTKSFNRGEC
light 2: DIQMTQSPSSLSASVGDRVTITCKASQDVSIGVAWYQQKPGKAPKLLIYSASYRYTGVPSRFSGSGSGTDFTLTISSLQPEDFATYYCQQYYIYPYTFGQGTKVEIKSSASTKGPSVFPLAPSSKSTSGGTAALGCLVKDYFPEPVTVSWNSGALTSGVHTFPAVLQSSGLYSLSSVVTVPSSSLGTQTYICNVNHKPSNTKVDKKVEPKSC
notes: also called Trispecific Her1/Her3 xHer2
Consider B2, for which, in the experiment with human HER3 ectodomain, the Kd is 1.8 nM, the koff is 0.0044 s⁻¹, the kon was found to be 2.4e+06 M⁻¹ s⁻¹ and the “t ½” value worked out at 2.6 min. For the same molecule, in the experiment with human HER1 ectodomain, the Kd stood at 17 nM, the koff was determined as 0.02 s⁻¹, the association rate constant (kon) came out at 1.2e+06 M⁻¹ s⁻¹ and the “t ½” value was found to be 0.6 min.

The record behind these values is patent US20150166670A1 (Hoffmann-La Roche, published 2015).
